According to the nanobody polyreactivity screen of Harvey et al. (2022):

Test: yeast display, Sf9 membrane polyspecificity reagent, FACS + sequencing; frameworks hold sequencing errors
How it was run: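 Nanobodies came from a synthetic yeast display library in Saccharomyces cerevisiae BJ5465, induced with galactose for 36–48 hours and stained for 1 hour at 4 °C with 10% biotinylated, detergent-solubilized Sf9 membrane reagent. Cells were enriched on streptavidin microbeads and then FACS-sorted, with low and high (top ~1%) gates set on anti-HA fluorescence for expression and streptavidin fluorescence for reagent binding. Each polyreactivity label reflects the gate a clone came from. Genes were amplified by colony PCR, sequenced by MiSeq 2 × 250 and filtered by CDR length.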

Row | Sequence | polyreactivity (PSR sort gate)
1 | QVHLVESGGGLVQAGGSLRLSCAASGSTFTLNTMGWYRQAPGKERELVAGIRSGGSTYYADSVKGRFTISRDNAKNTVYLQMNSLKPEDTAVYYCAADRRWFAYWFDYWGQGTQVTVSS | low polyreactivity
2 | QVQLVESGGGLVQAGGSLRLSCAASGITFRYYAMGWYRQAPGKERELVAAISSGGGTYYADSVKGRFTISRDNAKNTVYLQMNSLKPEDTAVYYCNVLRLYPSMDYWGQGTQVTVSS | high polyreactivity
3 | QVQLVESGGGLVQAGGSLRLTCAASGITFISYAMGWYIQAPGKERELVAAITKSGGRTYYADSVKGRFTISRDNAKKTVYLQMNSLKPEDTAVYYCAAYHLRDNRIGGGYWGQGTQVTVSS | high polyreactivity
4 | QVQLVESGGGFVQAGGSLRLSCAASGRTFSYYAMGCYRQAPGKERELVASISGGGRTNYADSVKGRFTISRDNAKNTVYLQMNSLKAEDTAVYYCAARYEVRHTLYNYWGQGTQVTVSS | high polyreactivity
5 | QVHLVETGGGLVQEGGSLRLSCAASGSIFYYNAMGWYRQATGKETELVAAITSSGGSTYADSVKGRFTISRDNAKNTVYLQMNSLKPEDTAVYYCATVAHGLWSGSGYIYAYDYWGQGTQVTVSS | low polyreactivity
6 | QVQLVESGGGLVQAGGSLRLSCAASGLIFSYYAMGWYRQAPGKERELVAAIDWISGSTYYADSVKGRFTISRDNAKNTVYLQMNSLKPEDTAVYYCAAYGSFWYAGFGYWGQGTQVTVSS | low polyreactivity
7 | QVQLVESGGGLVQAGGSLRLSCAASGSIFSRYAMGWYRQAPGKERELVAAISRGGSTNYADSVKGRFTISRDNAMNTVYLQMNSLKPEDTAVYYCAADGGKNPVRYDYWGQGTQVTVSS | high polyreactivity
8 | QVQLVESGGGLVQAGGSLRLSCAASGRIFGKNAMGWYRQAPGKERELVAAISANGGSTSYADSVKGRFTISRDNAKNTVYLQMNSLKPEDTAVYYCNVRRQLRGDYWGHGTQVTVSS | high polyreactivity
9 | QVQLVESGGGLVQAGGSLRLSCAGSGSTVSANALGSYRQAPGKDRELVAAISRRGGSTNYADSVKGRFTISRDNAKNTVYLQMNSLKPEDTAVYYCAGLYVPRSPFSYDYWGQGTQVTVSS | high polyreactivity
10 | QVQLVESGGGLVQAGGSLRLSCAASGRIFPANDMGWYRQAPGKERELVASIRRGGITYADSVKGRFTISRDNAKNTVYLQMNSLKPEDNAVYYCNADYRGWGYHMDYWGQGTQVTVSS | low polyreactivity
11 | QVQLVESGGGLVQAGGSLRLSCAASGSTFYPNAMGGYRQAPGKERELVATITQRGGTTYYADSVKGRFTISRDNAKNTVYLQMNSLKPEDTAVYYCNAGPVRLPYDSWGQGTQVTVSS | low polyreactivity
12 | QVQLVESGGGLVQAGGSLRLSCAASGSTLVTNPMGWYRQAPGKERELVAAITFSGGTTYYADSVKGRFTISRDTAKNTVYLHMNSLKPEDTAVYYCAAEIWLEYVGYDYWGQGTQVTVSS | high polyreactivity
13 | QVQLVESGGGLVQAGGSLRLSCAASGTFYGKTMGWYRQAPGKERELDAVISIDGSTNYADSVKGRFTISRDNAKKTVYLQMNSLKPEDTAVYYCNARNQWRTVGKYDYWGQGTQVTVSS | low polyreactivity
14 | QVQLVESRGGLVQAGGSLRLSCAASGITFDVYDMGWYRQAPGKERELVASINSGGGITYYADSVKGRFTISRDNAKNTVYLQMNSLKPEDTAVFYCADDTWGSSWYDLFRETSDYWGQVTQVTVSS | low polyreactivity
15 | QVQLVESGGGLVQAGGSLRLSCAASGFTSSAYAMGWYRQEPGKESELVAVISRSGGRTYYADSVKGRFTISRDNAKNTVYLQMNSLKPEDTADYYCAAEYGVYNIHFPGYDYWGQGTQVTVSS | high polyreactivity
16 | QVQLVESGGGLVQAGGSLRLSCAASGFTFTWYAMGLYRQAPGKERELVAAISSGGGRTYYADSVKGRFTISRDNAKNTVYLQMNRLKPEDTAVYYCNAVAGGVYVDNGYDYWGQGTQVTVSS | high polyreactivity
17 | QVQLVESGGGLVQAGGSLRLSCAASGRTFSNNAMGWYRQAPGKERELVAAISSTGGRTYYADSVKGRFTISRDNAKNTGYLQLNSLKPEDTAVYYCAATYVHYPSLGYDYWGQGTQVTVSS | high polyreactivity
18 | QVQLVESGGGLVQAGGSLRLSCAASGIFGRNAMGWYRQAPGKERELVAAITGSGGRTYYADSVKGRFTISRDNAKNTVYLQMNSLKPEDTAVSYCAASIPSTHGYAYDYWGQGNQVTVSS | high polyreactivity
19 | QVQLLESGGGLLQAGGSLRLSCAASGLTFGKYAMGWYRQAPGKERELVAAINSSGGSTYYADSVKGRFTISRDNAKNTVYLQMNSLKPEDSAVYYRAVAVYRLIYFVYNYWGQGTQVTVSS | low polyreactivity
20 | QVQLVESGGGLVQAGGSLRLSCAASGGTVWYYTMGWYRQAPGKERELVARITGGSRTNYADSVNGRFTISRDNAKNTVYLQMNSLKPEDTAVYYCARTSWSGVSYDYWGQGTQVTVSS | high polyreactivity
21 | QVQLVESGGGLVQAGGSLRLSCAASGLTFASNAMGWYRQAPGKERELVAAISWSDGSTYYADSVKGRFTISRDNAKNTVYLQMNSLKPEDTAVYYCAAEPPGFRTSRVGYWGQGTQVTVSS | low polyreactivity
22 | QVHLVESGGGLVQAGGSLRLSCAASGFTITYNAMGWYRQAPGKEREFVAAITNNGSTYYADSVKGRFTISRDNAKNSVYLQMKSLKPEDTAVYYCAVDRGYYDEYNYWGQGTHVTVSS | low polyreactivity

Row | Sequence | polyreactivity (PSR sort gate)
23 | QVQLVESGGGLVQAGGSLRLSCAASGSTFKPNVMGWYRPAPGKERELVAAITSTDDRTYYADSVKGRFTISRDNAKNTVYLQMNSLKPEDTAVYYCNRPYAWYGYIYNYWGQGTQVTVSS | low polyreactivity
24 | QVQLVESGGGLVQAGGSLRLSCAASGRTFRSNAMGWYRQAPGKERELVAAIRNSDGSTNYADSVKGRFTISRDNAKNTVYLQMNSLKPEDTAVYYCAASSTVGRITRILYYYWGQGTQVTVSS | high polyreactivity
25 | QVQLVESGGGLVQAGGSLRLSCAASGSIFGGYAMGWYRQAPGKERELVAAISWSSSSTYYADSVKGRFTISRDNAKNTVFLQMISLKPEDTAVYYCATGIYPQTSDYVYWGQGTQVTVSS | low polyreactivity
26 | QVQLVESGGGLVQAGGSLRLSCAASGSIFGYYAMGGYRQAPGKERELVAAISVNGGRTYYADSVKGRFTISRDNAKNTVYLQMNSLKPEDTAVYYCAAELVDYITFRGDYYYWGQGTQVTVSS | high polyreactivity
27 | QVQLVESGGGLVQAGGSLRLSCAASGRIFEYYAMGWYRQAPGKERELVAAINTGGNTYYADSVKGRFTLSRDNAKNTVYLQMNSLKPEDTAVYYCATYPIWYCGYLSGTDYDYWGQGTQVTVSS | low polyreactivity
28 | QVQLVESGGGLVQAGGSLRLICAASGSIFLNYAMGWYRQAPGKERELVASLRRIGGRTFYADSVKGSFTISRDNAKNTVYLQMNSLKPEDTAVYYCAAEYYYGLTVEYWGQGTQVTVSS | high polyreactivity
29 | QVQLVESGGGLVQAGASLRLSCAASGGIFDLYAMGWYRQAPGKERELVAAITRSGSSTFYADSVKGRFTISRDNAKNTVYLQMNSLKPEDSAVYYCNARYCWYGTYGGDYWGQGTQVTVSS | low polyreactivity
30 | QFQLVESGGGLVQAGGSLRLSCAASGFTLRTYAMGWYRQAPGKERELVAAITVSGGTYYADSVKGRFTISRDNAKYTVYLQMNSLKPEDTAVYYCTAKRFGTGFDYWGQGTQVTVSS | low polyreactivity
31 | QVQLVETGVGLVKAGGSLRLSSAASGYIFYYYAMGWYRQERGKERELVAAISTSDTRTFYADSVKGRFSISRDNAKNTVYLQMNSLKPEDTAVYYCAASLYICGPNYGYEYWGLGTQVTVSS | low polyreactivity
32 | QVQLVESGGGLVQAGGSLRLSCAASGRIIDANVMGWYRQAPGKERELVAAISASAGSTSYADSVKGRFTISRDNAKNTVYLQMNSLKPEDTAVYYCAADPYQLWHYYYFGMDYWGQGTQVTVSS | low polyreactivity
33 | QVQLEESGGGLVQAGGSLRLSCAASGSTFYDYAMGWYRQAPGKERELVAAINGNGDSTYYADSVKGRFTISRDNAKNTVYLQMNSLKPEDTAVYYCAAYLGWGYDYWGQGTLVTVSS | low polyreactivity
34 | QVQLVESGGGLVQAGGSLRLSCAPSGATFRRNAMGWYRQAPGKERELVAAITWRGGSTSYADSVKGRFTISRDNAKNTVYLQMNSLKREDTAVYYCAAVKGHSQVLSYGYWGQGTQVTVSS | low polyreactivity
35 | QVLLQESGGGLVQAGGSLRLGCAASGTISPAYYMGRYHQAPGKEREFVAAITYGTNTYYADSVKGRFTISRDNAKNSVYLQMNSLKPEDTAVYYCSATAGYNGAHDYWGQGTQVTVSS | low polyreactivity
36 | QFQLVESGGGLVQAGGSLRLSCAASGSIFFYYAMGWYRQAPGKERELVAAITFTGGSTYYADSVKGRFTISRDNAKNTVYLQMNSLKPEDTAVYYCADYWYYGDEYVYWGQGTQVTVSS | high polyreactivity
37 | QVQLVESGGGLVQAGGSLRLSCAASGSTFANNAMGWYRQAPGKERELVAAISWSGGSTYYADSVKGRFTISRDNAKNTVYLQMNSLKPEDTAVYYCAADSPRYGGYGYWGQGTKVTVSS | low polyreactivity
38 | QVQHVESGGGLVQAGGSLRLSCDASGRIFAWYAMGWYRHAPGKERELVASISSGGRTNYADSVKGRFTISRDIAKNTVYLQMNSLKPVDTAVYYCNVAIVWPWYGRWFQEYDYWGQGTQVTVSS | low polyreactivity
39 | QVHLVESGGGLVQAGGSLRLSCAASGSIFVYNSMGWYRQAPGKEMELVAGITFIGGSTYYADSVKGRFTISRDNAKNTVYLQKNSLKPEDTAVYYCNADVAPGIFYGYDSWGQGTQVTVSS | low polyreactivity
40 | QVQLVESGGGLVQAGGSLRLSCAASGSTLSVNAMGWYRQAPGKERELVAAIDFDGGDTYYADSVKGRFTISRDNAKNTVYLQMKSLKPEDTAVYFCAADIGGQYDYLADDYWGQGNQVTVSS | low polyreactivity
41 | QVQLVESGGGLVQAGGSLRLSCAASGSTFSHYTMGWYRQAPGKERELVAAITRSGGSTYYADSVKARFTISRDNAKNNVYLQMTSLNPEDSAVYYCAATRQWNILRYDYWGQGTLVTVSS | low polyreactivity
42 | QVQLVESGGGLVQAGGSLRLSCAASGFIFYIYAMGWYRQAPGKEWELVAAISGGGGSTYYAASVKGRFTISRDNAKNTVYLQINSLKPEDTAVSYCAARYDVAWYSKRYSWGQGTQVTVSS | high polyreactivity
43 | QVQLVESGGGLVQAGGRLRLSCAASGFTFNRNAMGWYRQAPGKERELVAAISDSGDNTYYADSVKGRFTISRDNAKNTVYLQMNSLKPEDTAVYYCATSFYGFSYHWFDYWGQGTQVTVSS | low polyreactivity
